In publication PMC8923076 (Cell chemical biology, 2021):

Target: GST-fused GAS41 YEATS domain (residues 1-148) (human, UniProt O95619 1-148)
Assay: fluorescence polarisation

GST-fused GAS41 YEATS domain (residues 1-148), sequence (O95619 1-148): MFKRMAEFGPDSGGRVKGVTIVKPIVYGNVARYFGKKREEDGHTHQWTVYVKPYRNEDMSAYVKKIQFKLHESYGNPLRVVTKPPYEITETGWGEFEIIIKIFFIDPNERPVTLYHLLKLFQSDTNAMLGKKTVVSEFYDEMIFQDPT

B1: H3K18acK27ac peptide (peptide)
peptide: GGKAPRKQLATKAARKSAP
modifications: N-terminal acetyl; acetyl-lysine at K18 and K27; C-terminal amide
IC50: 50 µM
